Measurements reported in patent US20110038869A1 (Genmab, published 2011).

Legend:
biotinylated CD32bECDHis [1] = target: T1, biotinylated CD32bECDHis (human, UniProt P31994 43-223, limits assumed, biotinylated (sites not given)); assay: competition ELISA, competitor 016
T1 sequence (looked up): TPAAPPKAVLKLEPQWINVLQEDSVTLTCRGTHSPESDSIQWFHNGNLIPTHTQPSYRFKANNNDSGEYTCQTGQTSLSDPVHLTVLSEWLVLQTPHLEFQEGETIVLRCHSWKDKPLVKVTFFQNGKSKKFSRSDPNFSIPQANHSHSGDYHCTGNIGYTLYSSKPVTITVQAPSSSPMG
Protocol: (§1) ELISA wells were coated overnight at 4° C. with anti-CD32b HuMabs serially diluted in PBS. The ELISA wells were washed with PBS, blocked for one hour at room temperature with 2% (v/v) chicken serum (Gibco, Paisley, Scotland) in PBS and washed again with PBS. Subsequently, the immobilized antibodies were incubated with biotinylated CD32bECDHis serially diluted in PBSTC. After washing with PBS/Tween, bound biotinylated CD32bECDHis was incubated with Streptavidin-poly-HRP (Sanquin, Amsterdam, The Netherlands) for 1 hr at RT an the reaction was developed as described supra.
(§2) To this end, ELISA wells coated with anti-CD32b HuMabs were incubated in the presence of an excess of CD32b-specific antibody and the predetermined concentration of biotinylated CD32bECDHis in fluid phase. The reaction was developed as described.

biotinylated CD32bECDHis [2] = target: T1, biotinylated CD32bECDHis; assay: competition ELISA, competitor 020
Protocol: as §1, §2

biotinylated CD32bECDHis [3] = target: T1, biotinylated CD32bECDHis; assay: competition ELISA, competitor 053
Protocol: as §1, §2

biotinylated CD32bECDHis [4] = target: T1, biotinylated CD32bECDHis; assay: competition ELISA, competitor 022
Protocol: as §1, §2

CD32bECDHis = target: T2, CD32bECDHis (human, UniProt P31994 43-223, limits assumed); assay: TR-FRET competition against HuMab-KLH-AlexaFluor 647 (N = 2)
T2 construct: Produced in HEK-293F cells; also called extracellular domain of CD32b with C-terminal His tag; soluble CD32b
T2 sequence (looked up): T1 sequence (looked up)
Text: To study the interaction of anti-CD32b HuMabs with CD32b and CD32a in more detail TR-FRET technology was applied. To this end, CD32bECDHis and CD32aECDHis were labeled with a fluorescent donor molecule directed against the histidine tag (Anti-6×His Europium3+, PerkinElmer, Boston Mass.).
Briefly, all dilutions were made in 0.5× Lance detection buffer (PerkinElmer, Boston Mass.) supplemented with 0.2% BSA (obtained via dilution of 7.5% BSA Stabilizer solution, cat: CR84-100, PerkinElmer) and 0.03% (v/v) Tween-20 (Riedel de Haen, Seelze, Germany). CD32bECDHis and CD32aECDHis were diluted to 0.5 μg/ml. […] Anti-6×His Europium3+ (PerkinElmer, Boston Mass.) was diluted to 0.15 μg/ml. […] After overnight incubation at 4° C. in the dark, fluorescence was measured using an EnVision 2101 Multilabel reader (PerkinElmer, Boston, Mass.) applying the following settings; Lance/Delfia dual mirror, emission filter 615-665 nm, excitation filter 320 nm, delay time 60 μs, window 100 μs, 100 flashes, 2000 μs per cycle and bidirectional row-by-row reading. Binding curves were analyzed using non-linear regression (sigmoidal dose-response with variable slope) using GraphPad Prism V4.03 software (GraphPad Software, San Diego, Calif., USA).

biotinylated CD32bECDHis [5] = target: T1, biotinylated CD32bECDHis; assay: competition ELISA, competitor 034
Protocol: as §1, §2

biotinylated CD32bECDHis [6] = target: T1, biotinylated CD32bECDHis; assay: competition ELISA, competitor 028
Protocol: as §1, §2

[7] = target: T3, full length CD32b2 on transfected IIA1.6 cells (human, UniProt P31994-2 43-291); assay: flow cytometry on IIA1.6-CD32b2 cells
T3 construct: whole, on cells; also called IIA1.6-CD32b2
T3 sequence (looked up): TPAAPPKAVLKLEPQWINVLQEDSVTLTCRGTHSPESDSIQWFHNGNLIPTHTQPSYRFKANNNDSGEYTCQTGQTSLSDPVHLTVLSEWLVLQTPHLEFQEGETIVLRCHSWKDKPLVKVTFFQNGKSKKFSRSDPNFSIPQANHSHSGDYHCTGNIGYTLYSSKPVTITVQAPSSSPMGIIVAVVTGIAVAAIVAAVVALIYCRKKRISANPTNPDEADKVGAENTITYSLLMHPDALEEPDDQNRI
Protocol: After harvesting and counting, IIA1.6 cells stably transfected with full length CD32a and CD32b (van den Herik-Oudijk et al., 1994), control IIA1.6 cells and Daudi-luc cells were resuspended in PBS (1×10⁶ cells/ml). Cells were put in 96-well V-bottom plates (100 μl/well) and washed twice with FACS buffer (PBS supplemented with 0.1% BSA and 0.02% Na-azide). Thereafter, 50 μl of serially diluted HuMab in FACS buffer was added to the cells and incubated for 30 minutes at 4° C. After washing three times with FACS buffer, 50 μl of phycoerythrin (PE)-conjugated rabbit anti-human IgG (Jackson ImmunoResearch Europe), diluted 1:200 in FACS buffer, was added. After 30 minutes at 4° C. (in the dark), cells were washed three times, and specific binding of the HuMabs was detected by flow cytometry on a FACSCalibur (BD Biosciences). […] Binding curves were analyzed using non-linear regression (sigmoidal dose-response with variable slope) using GraphPad Prism V4.03 software (GraphPad Software, San Diego, Calif., USA).
To analyze binding of anti-CD32b HuMabs to CD32b1 and CD32b2, IIA1.6 cells transfected with full length CD32b1 or CD32b2 (van den Herik-Oudijk et al., 1994) were prepared as described supra. The assay was performed as described supra. Flow cytometry was performed on a FACS Canto II (BD Biosciences).

biotinylated CD32bECDHis [8] = target: T1, biotinylated CD32bECDHis; assay: competition ELISA, competitor 038
Protocol: as §1, §2

biotinylated CD32bECDHis [9] = target: T1, biotinylated CD32bECDHis; assay: competition ELISA, competitor 063
Protocol: as §1, §2

biotinylated CD32bECDHis [10] = target: T1, biotinylated CD32bECDHis; assay: competition ELISA, competitor 026
Protocol: as §1, §2

biotinylated CD32bECDHis [11] = target: T1, biotinylated CD32bECDHis; assay: competition ELISA, competitor 024
Protocol: as §1, §2

biotinylated CD32bECDHis [12] = target: T1, biotinylated CD32bECDHis; assay: competition ELISA, competitor 2B6
Protocol: as §1, §2

B1: Antibody 034 (antibody, human IgG1, V domains shown)
VH: EVQLLESGGGLVQPGGSLRLSCAASGFTFSNFVMSWVRQAPGKGLEWVSGISGSGGNTDHADSVKGRFTISRDNSKNTVYLQMNSLRAEDTAVYYCAKDSGGLFDYWGLGTLVTVSS
VL: not shown
notes: Human antibody; also called HuMab 034
**Q.** B1 was tested. Which “% residual binding” value (biotinylated CD32bECDHis [1]) did it give?
**A.** 98%

**Q.** And the “% residual binding” value (biotinylated CD32bECDHis [2])?
**A.** 83%

**Q.** And the “% residual binding” value (biotinylated CD32bECDHis [3])?
**A.** 90%

**Q.** And the “% residual binding” value (biotinylated CD32bECDHis [4])?
**A.** 63%

**Q.** And the IC50 (CD32bECDHis)?
**A.** 0.45 nM

**Q.** And the “% residual binding” value (biotinylated CD32bECDHis [5])?
**A.** 23%

**Q.** What about the “% residual binding” value (biotinylated CD32bECDHis [6]) of the same binder?
**A.** 75%

**Q.** What about the EC50 [7] of the same binder?
**A.** 69 nM

**Q.** And the “% residual binding” value (biotinylated CD32bECDHis [8])?
**A.** 98%

**Q.** And the “% residual binding” value (biotinylated CD32bECDHis [9])?
**A.** 89%

**Q.** What about the “% residual binding” value (biotinylated CD32bECDHis [10]) of the same binder?
**A.** 83%

**Q.** And the “% residual binding” value (biotinylated CD32bECDHis [11])?
**A.** 56%

**Q.** What about the “% residual binding” value (biotinylated CD32bECDHis [12]) of the same binder?
**A.** 90%
